Like-named read-outs stand apart in the source and are kept apart here.
Legend:
Format in all cases: binding
[1] = molecular target: T1, PP1γ catalytic domain (7–300), C-terminally His6-tagged (Mus musculus, UniProt P63087); experiment: Isothermal titration calorimetry (ITC); parameters: key to KD / ∆H / ∆G / -T∆S / N (sites): –: no binding detected
T1 construct: mouse PP1γ catalytic domain (residues 7–300)-H6; made in house; host or cells: E. coli T7 Express lysY/Iq
Description: (§1) Bacterial expression plasmids encoding the mouse PP1γ catalytic domain (residues 7–300)-H6 and pUL21-H6, and mammalian expression vectors encoding pUL21(FV242AA)-GFP, pORF38-GFP and pORF38(FV255AA)-GFP, were described previously ([23]). We note that the mouse and human PP1γ catalytic domains share 100% amino acid identity. pORF38-NLT-H6 was generated by sub-cloning residues 1 to 263 of ORF38 into the vector pOPTnH ([52]). pUL21-RVxF-H6 was generated by inserting the mutations A237V and V239F into pUL21-H6 by QuikChange site-directed mutagenesis. Human PP1α was cloned from HeLa cell cDNA into a vector derived from pF5K (Promega) with an N-terminal Myc epitope tag via restriction-based cloning, and point mutations were introduced into Myc-PP1α by QuikChange mutagenesis. A plasmid encoding pUL21-GFP was generated by sub-cloning a codon-optimized synthetic UL21 gene (GeneArt) into pEGFP-N1 (Clontech), yielding an identical pUL21-GFP amino acid sequence as used in ([23]). pUL21-ΔL, -ΔR and -ΔLR were generated from this vector via inverse PCR, and point mutations were introduced via QuikChange mutagenesis.
Proteins were expressed using E. coli T7 Express lysY/I^q cells (New England Biolabs) grown in 2 × TY medium at 37 °C to OD600 0.8 to 1.2 before cooling to 22 °C and induction of protein expression using 0.4 mM IPTG. Cells were harvested at 16 to 20 h post-induction and pellets stored at −70 °C until required. Cells were resuspended in chilled lysis buffer (20 mM Tris pH 7.5, 20 mM imidazole, 500 mM NaCl, 1.4 mM β-mercaptoethanol 0.5 mM MgCl2 and 0.05% TWEEN-20 [plus 1 mM MnCl2 for PP1]) that was supplemented with 200 μl EDTA-free protease inhibitor cocktail (Merck) and 400 U bovine DNase I (Merck). Cells were lysed using a TS series cell disruptor (Constant Systems) at 24 kpsi and lysates were clarified (40,000×g, 30 min, 4 °C) before incubation with Ni-NTA agarose (Qiagen) for 1 h at 4 °C. The resin was washed with ≥20 column volumes of wash buffer (20 mM Tris, 20 mM imidazole and 500 mM NaCl [plus 1 mM MnCl2 for PP1]) at pH 7.5 (PP1γ and pORF38-NLT) or pH 8.5 (pUL21 and pUL21-RVxF). Protein was eluted using wash buffer supplemented with additional imidazole (final concentration 250 mM) and proteins were subjected to size-exclusions chromatography using HiLoad 16/600 Superdex 75 (PP1) or Superdex 200 (other) columns equilibrated in 20 mM Tris pH 8.5, 500 mM NaCl, 1 mM DTT (for pUL21 and pUL21-RVxF) or 50 mM HEPES pH 8.0, 500 mM NaCl, 0.5 mM TCEP (for PP1 and pORF38-NLT). Fractions were analysed by SDS-PAGE and those containing the desired protein were pooled, concentrated using centrifugal concentrators (Millipore) and stored at 4 °C (short-term) or snap-frozen in liquid nitrogen for long-term storage at −70 °C.
ITC experiments were performed using a MicroCal PEAQ-ITC automated calorimeter (Malvern Panalytical). The solvent (ITC buffer) was 50 mM HEPES pH 8.0, 500 mM NaCl, 0.5 mM TCEP. Lyophilized peptides were dissolved into ITC buffer and their concentration was estimated from dry mass. Proteins were diluted in ITC buffer, and their concentration was estimated from the theoretical extinction coefficient at 280 nm ([53]). […] Data were analyzed using MicroCal PEAQ-ITC analysis software (Malvern Panalytical) and fitted using a one-site binding model.
Table S1. Isothermal titration calorimetry (ITC) of PP1 with TROPPO-containing peptides and proteins. Data for independent experiments are shown. For all, the cell contained C-terminally His6-tagged mouse PP1γ (7–300). –, no binding detected.

[2] = molecular target: T2, PP1γ catalytic domain : GADD34 peptide pre-formed complex (Mus musculus, UniProt P63087); experiment: Competition fluorescence anisotropy, displacement of FITC-GADD34 peptide from PP1γ (HEPES pH 8.0); details: 2 nM fluorescent GADD34 peptide + 250 nM PP1γ
T2 construct: mouse PP1γ catalytic domain (residues 7–300)-H6; His6 (C); made in house; host or cells: E. coli T7 Express lysY/Iq (PP1γ); tracer peptide synthesised by GenScript
T2 sequence (P63087 7-300, one chain of several): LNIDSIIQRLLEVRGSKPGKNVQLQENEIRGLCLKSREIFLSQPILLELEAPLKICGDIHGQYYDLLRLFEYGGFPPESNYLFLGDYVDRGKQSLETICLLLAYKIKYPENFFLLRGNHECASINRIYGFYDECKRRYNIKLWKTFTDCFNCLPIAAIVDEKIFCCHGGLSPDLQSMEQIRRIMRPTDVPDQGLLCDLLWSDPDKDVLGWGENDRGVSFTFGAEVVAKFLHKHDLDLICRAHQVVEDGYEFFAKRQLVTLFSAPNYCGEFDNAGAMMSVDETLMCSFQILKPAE
Description: as §1
Peptides were commercially synthesised to >95% purity (GenScript) as follows: GADD34 RVxF+ϕϕ[xF] […]
(§2) Proteins were expressed using E. coli T7 Express lysY/I^q cells (New England Biolabs) grown in 2 × TY medium at 37 °C to OD600 0.8 to 1.2 before cooling to 22 °C and induction of protein expression using 0.4 mM IPTG. […] Fractions were analysed by SDS-PAGE and those containing the desired protein were pooled, concentrated using centrifugal concentrators (Millipore) and stored at 4 °C (short-term) or snap-frozen in liquid nitrogen for long-term storage at −70 °C.
Fluorescence anisotropy was measured using a SpectraMax i3 microplate reader (Molecular Devices) with wavelengths 485 ± 20 nm (excitation) and 535 ± 25 nm (emission). Samples (100 μl per well) were dispensed into low-bind black half-area 96-well microtitre plates (Corning) and fluorescence anisotropy was recorded at 27 °C. […]

[3] = molecular target: T2, PP1γ catalytic domain : GADD34 peptide pre-formed complex; experiment: Competition fluorescence anisotropy in Tris pH 8.5 buffer; details: 2 nM fluorescent GADD34 peptide + 250 nM PP1γ
Protocol: Similar competition fluorescence anisotropy experiments with purified full-length pUL21 (Fig. 5E) were performed in a buffer optimized to enhance solubility of the protein (Tris pH 8.5 in place of HEPES pH 8). […] To test whether optimization of the TROPPO sequence to better match a canonical RVxF motif could enhance binding, we generated, expressed and purified a pUL21-H6 mutant where residues A237 and V239 had been substituted for valine and phenylalanine, respectively (pUL21-RVxF, Fig. 5E).
as §1, with “A plasmid encoding pUL21-GFP was generated by sub-cloning a codon-optimized synthetic UL21 gene (GeneArt) into pEGFP-N1 (Clontech), yielding an identical pUL21-GFP amino acid sequence as used in ([23]). pUL21-ΔL, -ΔR and -ΔLR were generated from this vector via inverse PCR, and point mutations were introduced via QuikChange mutagenesis.” left out
as §2
Fluorescence anisotropy was measured using a SpectraMax i3 microplate reader (Molecular Devices) with wavelengths 485 ± 20 nm (excitation) and 535 ± 25 nm (emission). […]

[4] = TROPPO peptide, independent experiment 3, syringe/cell µM: pORF38 500/16.0
[5] = TROPPO peptides, independent experiment 1, syringe/cell µM: pUL21 1000/58.8, pORF38 1000/79.6
[6] = TROPPO peptides, independent experiment 2, syringe/cell µM: pUL21 1000/54.5, pORF38 500/17.0
[7] = independent experiment 1, 240 µM titrant, 17.0 µM PP1, HEPES pH 8.0, 25 °C
[8] = independent experiment 2, 147 µM titrant, 10.0 µM PP1, HEPES pH 8.0, 25 °C
[9] = independent experiment 3, 153 µM titrant, 9.5 µM PP1, HEPES pH 8.0, 25 °C

T1 sequence (P63087 7-300): as the sequence (P63087 7-300, one chain of several) above

For “KSDHITLSNFVQIRTIPR [pORF38 TROPPO, pORF38 TROPPO peptide (residues 246–263)]”, the “ITC heats of TROPPO peptides against PP1 catalytic domain” value ([1]; 500–1000 μM peptide titrated, 50 mM HEPES pH 8.0, 500 mM NaCl, 0.5 mM TCEP, 25 °C) was “did not evolve heats above background levels”, the “-T∆S” value [1, 4] was “–” and the “N (sites)” value [1, 4] was “–”. For the same molecule, the “∆G” value [1, 4] was “–”, the “∆H” value [1, 4] was “–” and the KD ([1]; TROPPO peptide, independent experiment 3, syringe/cell µM: pORF38 500/16.0, HEPES pH 8.0, 25 °C) was “–”. The “-T∆S” value [1, 5] was “–”, the “N (sites)” value [1, 5] was “–” and the “∆G” value [1, 5] was “–”. For the same molecule, the “∆H” value [1, 5] was “–”, the KD ([1]; TROPPO peptides, independent experiment 1, syringe/cell µM: pUL21 1000/58.8, pORF38 1000/79.6, HEPES pH 8.0, 25 °C) was “–” and the “-T∆S” value [1, 6] was “–”. For the same molecule, the “N (sites)” value [1, 6] was “–”, the “∆G” value [1, 6] was “–” and the “∆H” value [1, 6] was “–”. For the same molecule, the KD ([1]; TROPPO peptides, independent experiment 2, syringe/cell µM: pUL21 1000/54.5, pORF38 500/17.0, HEPES pH 8.0, 25 °C) was “–” and the “Displacement of GADD34 peptide from PP1 by TROPPO peptides” value ([2]; competitor at over 1000-fold molar excess, HEPES pH 8.0, 500 mM NaCl, 0.05% TWEEN-20, 27 °C) was “Neither TROPPO-containing peptide was able to displace the GADD34 peptide”.

B1: pORF38-NLT: VZV pORF38 N-terminal domain plus Linker region up to the end of the TROPPO motif (residues 1 to 263) (protein)
chain: MEFPYHSTVSYNGVTFYFNERATRAYFICGGCLISIPRKHGGEIAKFGHVVRGVGPGDRSVASYVRSELNRTGKTWAVSSNNNCVFLDRVALLAAGSGAVDRDLCGTFDVEVEDPTLADYLVSLPVTHLTLVAGVDVTRENKLKLFPTPTAINTTNGFMYVPNEASFSLVYMRMLELPESLQELVSGLFDGTPEIRDALNGSNDDEKTSIIVSRRAADVVTEDVKADDVPISGEPYSEKQPRRRKKSDHITLSNFVQIRTIPR
modifications: left off: His6, C-terminal, kept
In the case of B1, the “ΔH, mean” value ([1]; 25 °C, HEPES pH 8.0, average of three independent experiments) is reported as -55.6 kJ/mol, the Kd ([1]; independent experiment 1, 240 µM titrant in syringe, 17.0 µM PP1 in cell, HEPES pH 8.0, 25 °C, read-out: KD) is reported as 0.719 µM and the “-T∆S” value [1, 7] is reported as 19.9 kJ/mol. The “N (sites)” value [1, 7] was 1.21 sites, the “∆G” value [1, 7] was -35.1 kJ/mol and the “∆H” value [1, 7] was -54.8 kJ/mol. The Kd ([1]; independent experiment 2, 147 µM titrant in syringe, 10.0 µM PP1 in cell, HEPES pH 8.0, 25 °C, read-out: KD) was 0.54 µM, the “-T∆S” value [1, 8] was 19.7 kJ/mol and the “N (sites)” value [1, 8] was 0.965 sites. The “∆G” value [1, 8] was -35.8 kJ/mol, the “∆H” value [1, 8] was -55.6 kJ/mol and the Kd ([1]; independent experiment 3, 153 µM titrant in syringe, 9.5 µM PP1 in cell, HEPES pH 8.0, 25 °C, read-out: KD) was 0.231 µM. The “-T∆S” value [1, 9] was 18.8 kJ/mol, the “N (sites)” value [1, 9] was 0.838 sites and the “∆G” value [1, 9] was -37.9 kJ/mol. The “∆H” value [1, 9] was -56.9 kJ/mol, the “PP1 binding compared with GADD34 peptide” value ([1]; pORF38-NLT ITC versus GADD34 peptide by fluorescence anisotropy or ITC) was “substantially weaker binding than observed for the GADD34 peptide” and the Kd ([1]; pORF38-NLT titrated into PP1, HEPES pH 8.0, 500 mM NaCl, 0.5 mM TCEP, 25 °C, one-site model, mean ± SEM, three independent experiments, listed as pOPF38-NLT, read-out: Affinity (KD), mean) was ~0.5 µM. The “Competition with RVxF peptide for PP1 binding” value ([2]; increasing concentrations of pORF38-NLT, HEPES pH 8.0) was “competes with the RVxF peptide for PP1 binding”.

B2: Full-length pUL21: purified full-length HSV-1 pUL21 (protein)
chain: MELSYATTMHYRDVVFYVTTDRNRAYFVCGGCVYSVGRPCASQPGEIAKFGLVVRGTGPDDRVVANYVRSELRQRGLQDVRPIGEDEVFLDSVCLLNPNVSSELDVINTNDVEVLDECLAEYCTSLRTSPGVLISGLRVRAQDRIIELFEHPTIVNVSSHFVYTPSPYVFALAQAHLPRLPSSLEALVSGLFDGIPAPRQPLDAHNPRTDVVITGRRAPRPIAGSGAGSGGAGAKRATVSEFVQVKHIDRVGPAGVSPAPPPNNTDSSSLVPGAQDSAPPGPTLRELWWVFYAADRALEEPRADSGLTREEVRAVRGFREQAWKLFGSAGAPRAFIGAALGLSPLQKLAVYYYIIHRERRLSPFPALVRLVGRYTQRHGLYVPRPDDPVLADAINGLFRDALAAGTTAEQLLMFDLLPPKDVPVGSDVQADSTALLRFIESQRLAVPGGVISPEHVAYLGAFLSVLYAGRGRMSAATHTARLTGVTSLVLAVGDVDRLSAFDRGAAGAASRTRAAGYLDVLLTVRLARSQHGQSV
modifications: left off: His6, C-terminal, kept
notes: purified full-length HSV-1 pUL21
With B2 the “Competition with GADD34 peptide for PP1 binding” value [3] was “unable to out-compete GADD34 for binding to PP1” and the “Competition with GADD34 peptide for PP1 binding” value ([3]; listed as wild-type pUL21) was “cannot displace a GADD34 RVxF- and ϕϕ[xF]-containing peptide from PP1”.
